Results: article PMC11602157, “ZNF512B binds RBBP4 via a variant NuRD interaction motif and aggregates chromatin in a NuRD complex-independent manner” (Nucleic Acids Research, 2024)

What was measured:
NuRD complex members = assay: lf-qMS after GFP-Trap IP; assay type: binding; details: GFP-Trap IP vs GFP
Method: Preparation of Micrococcal nuclease (MNase)-digested nuclear extracts was performed as previously described ([15–17],[32]). Briefly, nuclei were isolated by incubation with PBS containing 0.3% Triton™ X-100 for 10 min at 4°C and washed in PBS, before being resolved in 500 μl freshly prepared Ex100 buffer (10 mM HEPES pH 7.6, 100 mM NaCl, 1.5 mM MgCl2, 0.5 mM EGTA, 10% glycerol, 10 mM β-glycerol phosphate, 1 mM Dithiothreitol (DTT), 2 mM CaCl2). Chromatin was then digested with 1.5 U MNase (sufficient for 4 × 10^7 cells, Sigma-Aldrich) for 20 min at 26°C. Digestion was stopped by adding 10 mM EGTA and transferring the sample to 4°C. […]
For label-free quantitative mass spectrometry (lf-qMS), precipitated proteins were eluted by incubation of beads with Elution Buffer (2 M urea, 50 mM Tris/Cl pH 7.5, 2 mM DTT, 20 μg/ml Trypsin Gold [Promega]) for 30 min at 37°C shaking at 1400 rpm in the dark. […]
After tryptic digest (see MNase IP), peptides were desalted on StageTips ([36]) and analysed by nanoflow liquid chromatography on an EASY-nLC 1000 system (Thermo Fisher Scientific) coupled online to a Q Exactive Plus mass spectrometer (Thermo Fisher Scientific). […]
The raw files were processed with MaxQuant ([37]) (version 1.6.5.0) against a human uniprot database (81194 entries). […] The match between run option and the LFQ quantitation were activated. […]

FLAG-tagged ZNF512B = assay: Oligomerization: GFP-Trap IP and FLAG immunoblot; assay type: binding; details: co-transfection of GFP- and FLAG-tagged ZNF512B constructs, HeLaK cells
Method: Preparation of DNase-digested cell extracts and immunoprecipitation was performed using GFP-Trap® Magnetic Particles M-270 (Chromotek) following the manufacturer’s protocol. In brief, cells were incubated for 30 min on ice with RIPA buffer (10 mM Tris/Cl pH 7.5, 150 mM NaCl, 0.5 mM EDTA, 0.1% SDS, 1% Triton™ X-100, 1% deoxycholate) supplemented with DNase I (75 Kunitz U/ml, Thermo Fisher Scientific) and MgCl2 (2.5 mM). After centrifugation at 17 000 × g for 10 min at 4°C, lysate was transferred to a fresh tube and mixed with Dilution buffer (10 mM Tris/Cl pH 7.5, 150 mM NaCl, 0.5 mM EDTA). Lysate was then incubated with GFP-Trap® Magnetic Particles M-270 rotating for 1 h at 4°C. For peptide competition, lysate was incubated with peptide solution rotating for 1 h at 4°C before incubation with beads. After incubation, beads were washed three times with Wash buffer (10 mM Tris/Cl pH 7.5, 150 mM NaCl, 0.05% Nonidet™ P-40 Substitute, 0.5 mM EDTA), and precipitated proteins were eluted by boiling beads for 5 min in 2× SDS-sample buffer. Eluates were compared to input material via semi-dry western blotting. Details on applied antibodies and peptides are listed in the Supplementary Data.

[1] = tested on: 4xUAS-tk-luc reporter in HEK293T cells; assay: Luciferase reporter assay; assay type: cell-based; details: GAL fusion, 72 h, three biological replicates
Method: Per well of a 6-well plate, 1.5 × 10^5 HEK293T cells were seeded and transfected on the next day using 1 μg of 4xUAS-tk-luc reporter plasmid, 0.5 μg GAL expression vector and 0.5 μg pCMV-lacZ vector for normalization. Cells were directly lysed in well after 72 h with 200 μl Lysis buffer (25 mM Tris/Cl pH 7.5, 8 mM MgCl2, 1 mM EDTA, 1% Triton™ X-100, 15% glycerin, 1 mM DTT) for 15 min at RT. Supernatants were used to measure luciferase activity by mixing 100 μl 1:1 with 90 mg/L D-Luciferin/0.8 mM ATP and quantifying emitted light after 5 s incubation with an Orion L plate reader (Titertek-Berthold). Values were normalized to β-galactosidase activity by adding 5 μL supernatant to 900 μl LacZ buffer (50 mM Na2HPO4, 10 mM KCl, 0.1 mM MgSO4, pH 7) and 100 μl 4 g/L OPNG/0.1 M KPO4. When a color change of the mixture occurred, absorbance at 420 nm was measured.

B1: ZNF512B: zinc finger protein 512B; GAL-ZNF512B in the reporter assay, GFP-/FLAG-tagged in pull-downs (protein)
chain: MTDPFCVGGRRLPGSSKSGPGKDGSRKEVRLPMLHDPPKMGMPVVRGGQTVPGQAPLCFDPGSPASDKTEGKKKGRPKAENQALRDIPLSLMNDWKDEFKAHSRVKCPNSGCWLEFPSIYGLKYHYQRCQGGAISDRLAFPCPFCEAAFTSKTQLEKHRIWNHMDRPLPASKPGPISRPVTISRPVGVSKPIGVSKPVTIGKPVGVSKPIGISKPVSVGRPMPVTKAIPVTRPVPVTKPVTVSRPMPVTKAMPVTKPITVTKSVPVTKPVPVTKPITVTKLVTVTKPVPVTKPVTVSRPIVVSKPVTVSRPIAISRHTPPCKMVLLTRSENKAPRATGRNSGKKRAADSLDTCPIPPKQARPENGEYGPSSMGQSSAFQLSADTSSGSLSPGSRPSGGMEALKAAGPASPPEEDPERTKHRRKQKTPKKFTGEQPSISGTFGLKGLVKAEDKARVHRSKKQEGPGPEDARKKVPAAPITVSKEAPAPVAHPAPGGPEEQWQRAIHERGEAVCPTCNVVTRKTLVGLKKHMEVCQKLQDALKCQHCRKQFKSKAGLNYHTMAEHSAKPSDAEASEGGEQEERERLRKVLKQMGRLRCPQEGCGAAFSSLMGYQYHQRRCGKPPCEVDSPSFPCTHCGKTYRSKAGHDYHVRSEHTAPPPEEPTDKSPEAEDPLGVERTPSGRVRRTSAQVAVFHLQEIAEDELARDWTKRRMKDDLVPETARLNYTRPGLPTLNPQLLEAWKNEVKEKGHVNCPNDCCEAIYSSVSGLKAHLASCSKGAHLAGKYRCLLCPKEFSSESGVKYHILKTHAENWFRTSADPPPKHRSQDSLVPKKEKKKNLAGGKKRGRKPKERTPEEPVAKLPPRRDDWPPGCRDKGARGSTGRKVGVSKAPEK
modifications: left off: GFP, end not stated, kept
binding to NuRD complex members by lf-qMS (NuRD complex members): NIM-dependent binding of ZNF512B to all known NuRD complex members was observed
oligomer formation (FLAG-tagged ZNF512B): able to form oligomers that are strictly dependent on the ZF domains
repression of luciferase reporter [1]: strong repression effect
